Positions count from the first letter of the chain named. Where only a bound is given, the exact number is not on record here.

T1: human C4a (human, UniProt P0C0L4 680-756)
T1 construct: domain: C4a
T1 sequence (looked up): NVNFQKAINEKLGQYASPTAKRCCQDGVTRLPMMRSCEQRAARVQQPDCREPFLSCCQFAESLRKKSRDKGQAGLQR

T2: human C5a (human, UniProt P01031 678-751)
T2 construct: also called hC5a; free human C5a
T2 sequence: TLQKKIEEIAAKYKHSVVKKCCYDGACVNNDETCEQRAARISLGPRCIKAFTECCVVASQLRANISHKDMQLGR

T3: human C5a desarg (human, UniProt P01031 678-750)
T3 construct: also called desarginated C5a; hC5a desarg
T3 sequence: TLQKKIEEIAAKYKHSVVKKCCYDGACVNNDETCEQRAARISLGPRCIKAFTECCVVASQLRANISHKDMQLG

B1: BNJ350 (antibody, V domains shown)
VH: QVQLVQSGAEVKKPGASVKVSCKASGYTFTDYSMDWVRQAPGQGLEWVGAINPNSGGTNYSQKFKDRVTITADESTSTAYMELSSLRSEDTAVYYCARSGSYDGYYAMDYWGQGTTVTVSS
VL: DIVMTQSPDSLAVSLGERATINCRASESVDSYGNSFMHWYQQKPGQPPKLLIYRASNLESGVPDRFSGSGSGTDFTLTISSLQAEDVAVYYCQQSNEDPYTFGGGTKVEIKR
notes: also called BNJ350 humanized anti-C5a antibody
B2: BNJ347 (antibody, V domains shown)
VH: QVQLVQSGAEVKKPGASVKVSCKASGYTFTDYSMDWVRQASGKGLEWMGAIHLNTGYTNYNQKFKGRVTITADESTSTAYMELSSLRSEDTAVYYCARGFYDGYSPMDYWGQGTTVTVSS
VL: B1 VL
notes: also called BNJ347 humanized anti-C5a antibody
B3: BNJ346 (antibody, V domains shown)
VH: B2 VH with S41P, K43Q, M48V
VL: B1 VL
notes: also called BNJ346 humanized anti-C5a antibody
B4: BNJ345 (antibody, V domains shown)
VH: B2 VH with A9S, V11L, S41P, K43Q
VL: B1 VL
notes: also called BNJ345 humanized anti-C5a antibody
B5: BNJ354 (antibody, V domains shown)
VH: B2 VH with I70M, A72R, E74T, A79V
VL: B1 VL
notes: also called BNJ354 humanized anti-C5a antibody
B6: BNJ367 (antibody, human IgG2, kappa)
heavy: QVQLVQSGAEVKKPGASVKVSCKASGYTFTDYSMDWVRQAPGQGLEWMGAINPNSGGTNYNQKFKDRVTMTRDTSTSTVYMELSSLRSEDTAVYYCARSGSYDGYYAMDYWGQGTTVTVSSASTKGPSVFPLAPCSRSTSESTAALGCLVKDYFPEPVTVSWNSGALTSGVHTFPAVLQSSGLYSLSSVVTVPSSNFGTQTYTCNVDHKPSNTKVDKTVERKCCVECPPCPAPPVAGPSVFLFPPKPKDTLMISRTPEVTCVVVDVSQEDPEVQFNWYVDGVEVHNAKTKPREEQFNSTYRVVSVLTVLHQDWLNGKEYKCKVSNKGLPSSIEKTISKAKGQPREPQVYTLPPSQEEMTKNQVSLTCLVKGFYPSDIAVEWESNGQPENNYKTTPPVLDSDGSFFLYSRLTVDKSRWQEGNVFSCSVMHEALHNHYTQKSLSLSLGK
light: DIVMTQSPDSLAVSLGERATINCRASESVDSYGNSFMHWYQQKPGQPPKLLIYRASNLESGVPDRFSGSGSGTDFTLTISSLQAEDVAVYYCQQSNEDPYTFGGGTKVEIKRTVAAPSVFIFPPSDEQLKSGTASVVCLLNNFYPREAKVQWKVDNALQSGNSQESVTEQDSKDSTYSLSSTLTLSKADYEKHKVYACEVTHQGLSSPVTKSFNRGEC
notes: Humanized full length IgG
B7: BNJ371 (antibody, human IgG2, kappa, V domains shown)
VH: B1 VH with V48M, S61N, I70M, A72R, E74T, A79V
VL: B1 VL with R54W, N57T, L58R
notes: Humanized full length IgG; Light chain CDR2 is humanized
B8: BNJ364 (antibody, human IgG2, kappa)
heavy: QVQLVQSGAEVKKPGASVKVSCKASGYTFTDYSMDWVRQAPGQGLEWMGAINPNSGGTNYNQKFKDRVTMTRDTSTSTVYMELSSLRSEDTAVYYCARSGSYDGYYAMDYWGQGTTVTVSSASTKGPSVFPLAPCSRSTSESTAALGCLVKDYFPEPVTVSWNSGALTSGVHTFPAVLQSSGLYSLSSVVTVPSSNFGTQTYTCNVDHKPSNTKVDKTVERKCCVECPPCPAPPVAGPSVFLFPPKPKDTLMISRTPEVTCVVVDVSHEDPEVQFNWYVDGVEVHNAKTKPREEQFNSTFRVVSVLTVVHQDWLNGKEYKCKVSNKGLPAPIEKTISKTKGQPREPQVYTLPPSREEMTKNQVSLTCLVKGFYPSDISVEWESNGQPENNYKTTPPMLDSDGSFFLYSKLTVDKSRWQQGNVFSCSVMHEALHNHYTQKSLSLSPGK
light: B6 light
notes: Humanized full length IgG
B9: BNJ366 (antibody, human IgG2, kappa)
heavy: QVQLVQSGAEVKKPGASVKVSCKASGYTFTDYSMDWVRQAPGQGLEWMGAIHLNTGYTNYNQKFKGRVTMTRDTSTSTVYMELSSLRSEDTAVYYCARGFYDGYSPMDYWGQGTTVTVSSASTKGPSVFPLAPCSRSTSESTAALGCLVKDYFPEPVTVSWNSGALTSGVHTFPAVLQSSGLYSLSSVVTVPSSNFGTQTYTCNVDHKPSNTKVDKTVERKCCVECPPCPAPPVAGPSVFLFPPKPKDTLMISRTPEVTCVVVDVSHEDPEVQFNWYVDGVEVHNAKTKPREEQFNSTFRVVSVLTVVHQDWLNGKEYKCKVSNKGLPAPIEKTISKTKGQPREPQVYTLPPSREEMTKNQVSLTCLVKGFYPSDISVEWESNGQPENNYKTTPPMLDSDGSFFLYSKLTVDKSRWQQGNVFSCSVMHEALHNHYTQKSLSLSPGK
light: B6 light
notes: Humanized full length IgG
B10: BNJ378 (antibody, human IgG2, kappa, V domains shown)
VH: B1 VH with V48M, S61N, I70M, A72R, E74T, A79V
VL: DIQMTQSPSSLSASVGDRVTITCRASESVDSYGNSFMHWYQQKPGKAPKLLIYRASNLESGVPSRFSGSGSGTDFTLTISSLQPEDFATYYCQQSNEDPYTFGGGTKVEIKR
notes: Humanized full length IgG
B11: 5an048ME (antibody, V domains shown)
VH: EVRLQQSGPELVKPGASVRISCKASGYTFNDYYYMNWVKQSHGKSLEWIGYIFPKTGGTHYNQRFKGKATLTVDKSSSTAYMELRSLTSEDSAVYYCASGPFAYWGQGTLVTVSA
VL: EIVLTQSPAIMSASPGEKVTMTCRASSSVSSSYLHWYQQKSGASPKLWIYSTSNLASGVPARFSGSGSGTSYSLTISSVEAEDAATYYCQQYSGYPLTFGGGTKLEIKR
notes: Full length mouse IgG2a
B12: 5an178ME (antibody, V domains shown)
VH: EVKLVESGGGLVQPGGSRKLSCAASGFTFSDYGMVWVRQAPGKGLEWVAFISSGSSNIYYADTVKGRFTISRDNPKNTLFLQMNSLRSEDTAIYYCGRAFSFYYGYDYWGQGTTLTVSS
VL: EIVLTQSPASLAVSLGQRATISCSASESVEYFGTSLMQWYQQKPGQPPKLLIYAASNVESGVPARFSGSGSGTDFSLNIHPVEEDDIAMYFCQQSRKVPWTFGGGTKLEIKR
notes: Full length mouse IgG2a
B13: 5an179ME (antibody, V domains shown)
VH: EVQLQQSGPELVKPGASVRMSCKASGYTFTSYLIHWVKQKPGQGLEWIGYIYPFNDGTKNNENFKGKATLTSDKSSSTVYMEVSSLTSEDSAVYYCARSHGPHYYGGSYGYHFDYWGQGTTLTVSS
VL: DVVMTQTPLSLPVSLGDQASISCRSSQSLVHSNGNTYLHWYLQKPGQSPKLLIYKVSNRFSGVPDRFSGSGSGTDFTLKISRVEAEDLGVYFCSQSTHVPLTFGAGTKLELKR
notes: Full length mouse IgG2a

T5 sequence (P01024 672-748 limits assumed): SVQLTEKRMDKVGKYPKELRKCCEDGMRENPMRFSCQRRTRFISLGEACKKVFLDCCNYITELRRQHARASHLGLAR

In the first test the target is T4, human full-length C5 (human, UniProt P01031 19-673; P01031 678-1676).
T4 construct: mature; also called uncleaved human C5; native, fully-folded human C5
T4 sequence (P01031 19-673 limits assumed, chain 1 of 2): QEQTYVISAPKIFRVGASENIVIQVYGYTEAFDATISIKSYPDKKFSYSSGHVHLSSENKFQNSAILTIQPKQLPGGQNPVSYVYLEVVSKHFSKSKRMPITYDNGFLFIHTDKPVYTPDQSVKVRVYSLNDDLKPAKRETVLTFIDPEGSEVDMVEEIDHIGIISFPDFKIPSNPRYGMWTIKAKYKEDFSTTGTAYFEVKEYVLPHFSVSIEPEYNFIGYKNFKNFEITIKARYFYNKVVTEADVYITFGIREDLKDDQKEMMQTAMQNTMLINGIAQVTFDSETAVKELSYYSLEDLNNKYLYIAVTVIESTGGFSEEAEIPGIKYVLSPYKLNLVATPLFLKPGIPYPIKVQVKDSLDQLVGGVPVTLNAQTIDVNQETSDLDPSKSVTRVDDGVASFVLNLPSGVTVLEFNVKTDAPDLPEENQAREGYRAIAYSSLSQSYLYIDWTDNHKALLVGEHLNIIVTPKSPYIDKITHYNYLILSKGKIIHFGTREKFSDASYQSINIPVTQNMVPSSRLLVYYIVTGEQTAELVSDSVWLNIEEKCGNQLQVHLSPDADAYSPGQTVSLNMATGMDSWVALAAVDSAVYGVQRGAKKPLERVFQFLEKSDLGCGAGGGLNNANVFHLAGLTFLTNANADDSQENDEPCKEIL
T4 sequence (P01031 678-1676 limits assumed, chain 2 of 2): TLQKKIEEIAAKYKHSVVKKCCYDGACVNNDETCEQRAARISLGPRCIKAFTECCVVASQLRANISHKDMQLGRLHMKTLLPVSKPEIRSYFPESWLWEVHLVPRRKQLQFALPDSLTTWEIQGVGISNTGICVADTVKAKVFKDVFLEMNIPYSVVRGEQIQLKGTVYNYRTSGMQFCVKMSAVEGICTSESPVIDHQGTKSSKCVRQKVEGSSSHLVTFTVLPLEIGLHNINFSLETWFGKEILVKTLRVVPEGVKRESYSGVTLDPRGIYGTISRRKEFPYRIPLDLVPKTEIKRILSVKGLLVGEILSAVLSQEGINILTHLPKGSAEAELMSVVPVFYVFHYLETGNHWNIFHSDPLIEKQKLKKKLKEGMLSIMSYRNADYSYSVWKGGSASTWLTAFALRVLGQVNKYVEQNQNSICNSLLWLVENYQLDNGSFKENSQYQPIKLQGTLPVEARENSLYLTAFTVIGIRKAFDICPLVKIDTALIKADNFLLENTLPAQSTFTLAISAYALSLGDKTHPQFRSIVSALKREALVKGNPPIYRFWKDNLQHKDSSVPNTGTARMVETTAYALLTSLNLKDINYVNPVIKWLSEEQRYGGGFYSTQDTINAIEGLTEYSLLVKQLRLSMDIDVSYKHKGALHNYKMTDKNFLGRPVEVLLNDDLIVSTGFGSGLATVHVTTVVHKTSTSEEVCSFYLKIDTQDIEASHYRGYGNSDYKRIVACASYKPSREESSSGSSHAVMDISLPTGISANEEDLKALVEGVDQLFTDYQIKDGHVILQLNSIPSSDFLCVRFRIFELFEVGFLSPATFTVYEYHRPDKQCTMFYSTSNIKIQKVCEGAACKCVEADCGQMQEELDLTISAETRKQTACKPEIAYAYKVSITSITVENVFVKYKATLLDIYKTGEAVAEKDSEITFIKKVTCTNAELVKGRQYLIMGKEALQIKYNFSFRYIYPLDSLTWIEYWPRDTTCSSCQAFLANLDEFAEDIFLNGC
The test is described as follows: Octet analysis. On the technique in general: In BLI a coated tip is dipped into the sample, and binding shifts an interference pattern.
Take B1: the binding result is reported as “no binding”.

As for B2, the binding result is “no binding”.

B3: the binding result was “no binding”.

For B4, the binding result is on record as “no binding”.

For the molecule B5, the binding result was “no binding”.

A further test concerns the target T5, human C3a (human, UniProt P01024 672-748).
T5 construct: domain: C3a
The test can be described thus: Octet analysis.
For the molecule B1, the binding result is “no binding”.

On to B2, for which the binding result was “no binding”.

For B3, the binding result was “no binding”.

Regarding B4, the binding result is “no binding”.

As for B5, the binding result is on record as “no binding”.

For the next test, the target named is T1, human C4a. The test can be described thus: Octet analysis.
In the case of B1, the binding result is reported as “no binding”.

B2: the binding result was “no binding”.

As for B3, the binding result is “no binding”.

Take B4: the binding result is reported as “no binding”.

Turning to B5, the binding result is “no binding”.

A further test has as its target T2, human C5a. The test is described as follows: SPR (Biacore); summary sentence of Table 4. The method, then: (§1) See, e.g., Karlsson and Larsson (2004) Methods Mol Biol 248:389-415. […] The surface was regenerated with 20 mM HCl, 0.02% P20 after each cycle to remove bound antibody and antigen. The data was evaluated using Biacore BlAevaluation software using a 1:1 Langmuir Model Fit (Rmax:Global Fit; R1:Local Fit). Kinetics information such as (kₐ: Association Rate constant), (kd:Dissociation Rate constant) and KD (Equilibrium Dissociation constant) was obtained from the fit. These experiments were for screening purposes with a minimal number of analyte concentrations (3 to 4) with 1 duplicate.
(In SPR one partner is held on a chip, and binding of the other changes the refractive index at the surface.)
B6: the Kd was less than 1 nM.

Take B7: the Kd was less than 1.2 nM.

The molecule B8 gave a Kd of less than 1 nM.

For B9, the Kd was less than 1 nM.

Regarding B10, the Kd is less than 1 nM.

In another test the target is T5, human C3a. The test can be described thus: Biolayer interferometry (Octet); biotinylated antigen on streptavidin tip, IgG in solution.
Procedure: (§2) These antibodies were evaluated for specificity using Biolayer Interferometry on an Octet (ForteBio Inc.).
Take B11: the binding result is recorded as “no binding (tested: 20 nM)”.

In the case of B12, the binding result is listed as “no binding (tested: 20 nM)”.

As to B13, the binding result is “no binding (tested: 20 nM)”.

The target in another test is T1, human C4a. Described as above.
Procedure: as §2
For the molecule B11, the binding result was “no binding (tested: 20 nM)”.

Consider B12, for which the binding result is “no binding (tested: 20 nM)”.

With B13, the binding result is listed as “no binding (tested: 20 nM)”.

A further test addresses T2, human C5a. The test can be described thus: Biolayer interferometry (Octet); biotinylated antigen on streptavidin tip, 20 nM IgG in solution.
Procedure: as §2
On to B11, for which the binding result is on record as “binds”.

Take B12: the binding result is “binds”.

In the case of B13, the binding result is on record as “binds”.

The target in the next test is T3, human C5a desarg. Described as above.
Procedure: as §2
Regarding B11, the binding result is listed as “binds”.

For B12, the binding result was “binds”.

As to B13, the binding result is “binds”.

The next test has as its target T2, human C5a. The test can be described thus: SPR (Biacore); antibody captured by anti-human Fc on CM5 chip, human C5a 0.6-5.9 nM as analyte; 1:1 Langmuir fit. The protocol:
as §1
In turn, B6 returned a Kd of 0.198 nM, a koff of 0.000778 s⁻¹ and a kon of 3.94e+06 M⁻¹ s⁻¹.

Take B7: the Kd amounted to 1.18 nM, the koff was 0.00282 s⁻¹ and the kon came out at 2.38e+06 M⁻¹ s⁻¹.

In turn, B8 showed a Kd of 0.644 nM, a koff of 0.000638 s⁻¹ and a kon of 991000 M⁻¹ s⁻¹.

Turning to B9, the Kd is 0.15 nM, the koff worked out at 0.000158 s⁻¹ and the kon was 1.05e+06 M⁻¹ s⁻¹.

In turn, B10 gave a Kd of 0.298 nM, a koff of 0.000576 s⁻¹ and a kon of 1.93e+06 M⁻¹ s⁻¹.

The term Kd denotes the concentration at which binding is half-saturated. A lower Kd goes with a tighter complex. By koff is commonly meant the rate constant with which the complex falls apart. A higher koff goes with a short-lived complex. As usually defined, the kon is the second-order rate constant of association. The low end stands for slow association, the high end for fast association.

The values above are taken from patent publication US20130224187A1 (Alexion, published 2013).
